# Results as given in CN112961250A (CHANGCHUN GENESCIENCE PHARMACEUTICALS CO LTD, dated 2021).
# T1: 人VEGFC-His(金赛自构) (human)
# T1 construct: also called hVEGFC-His; hVEGFC
# T1 chain: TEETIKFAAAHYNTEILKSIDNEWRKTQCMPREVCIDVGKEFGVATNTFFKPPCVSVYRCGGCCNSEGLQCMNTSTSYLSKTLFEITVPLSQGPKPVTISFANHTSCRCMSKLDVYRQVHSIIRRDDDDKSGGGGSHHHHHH
# B1: 抗人VEGFC单克隆抗体P01-H1L4 (antibody, V domains shown)
# VH: EVRLLESGGGLVQPGGSLRLSCAASGFTFRRSTMAWVRQAPGKGLEWVSSISAQGANTYYADNVKGRFTISRDNSKNTLYLQMNSLRAEDTAVYYCARDLPAGGFGPWGRGTMVTVSS
# VL: SYELTQPPSSSGTPGQRVTISCRGSSSNIGRYSVSWYQQVPGTAPKLLIYTDNQRPSGVPDRFSASKSGTSASLTITGLQSEDEADYYCAAWDDSQYGPWVFGGGTKLTVL
# notes: also called 阳性对照抗体P01-H1L4; 对照抗体P01-H1L4
# Molecular target: T1, 人VEGFC-His(金赛自构)
# Assay: ELISA, human VEGFC-His coated at 1 μg/ml
binder,measurement,value
B1,binding result,binds
